Experimental data published in US20030186281A1, “Modified tetracycline repressor protein compositions and methods of use” (priority 2001, published 2003).
Positions count from the first letter of the chain named. Names and notes keep the numbering of the source.

B1: TetRrev6-23: revTetR(BD) D95E A97E (protein)
chain: MSRLDKSKVINSALELLNEVGIEGLTTRKLAQKLGVEQPTLYWHVKNKRALLDALAVEILARHHDYSLPAAGESWQSFLRNNAMSFRRALLRYREGEKVHLGTRPDEKQYDTVETQLRFMTENGFSLRDGLYAISAVSHFTLGAVLEQQEHTAALTDRPAAPDENLPPLLREALQIMDSDDGEQAFLHGLESLIRGFEVQLTALLQIV
modifications: Modified tetracycline repressor
notes: revTetR(BD) D95E A97E
B2: TetRrev6-25: revTetR(BD) Y93S D95E G102A (protein)
chain: B1 chain with Y93S, E97A, G102A
modifications: Modified tetracycline repressor
notes: revTetR(BD) Y93S D95E G102A
B3: TetRrev6-26: revTetR(BD) Y93F G96W A97E H100N (protein)
chain: B1 chain with Y93F, E95D, G96W, H100N
modifications: Modified tetracycline repressor
notes: revTetR(BD) Y93F G96W A97E H100N
B4: TetRrev6-27: revTetR(BD) A71T G96E (protein)
chain: B1 chain with A71T, E95D, G96E, E97A
modifications: Modified tetracycline repressor
notes: revTetR(BD) A71T G96E
B5: TetRrev6-3: revTetR(BD) V99G H100P (protein)
chain: B1 chain with E95D, E97A, V99G, H100P
modifications: Modified tetracycline repressor
notes: revTetR(BD) V99G H100P
B6: TetRrev6-31: revTetR(BD) G96Q G102S (protein)
chain: B1 chain with E95D, G96Q, E97A, G102S
modifications: Modified tetracycline repressor
notes: revTetR(BD) G96Q G102S
B7: TetRrev6-32: revTetR(BD) L79V A97T K98R V99G (protein)
chain: B1 chain with L79V, E95D, E97T, K98R, V99G
modifications: Modified tetracycline repressor
notes: revTetR(BD) L79V A97T K98R V99G
B8: TetRrev6-33: revTetR(BD) A97T K98R V99G (protein)
chain: B1 chain with E95D, E97T, K98R, V99G
modifications: Modified tetracycline repressor
notes: revTetR(BD) A97T K98R V99G
B9: TetRrev6-34: revTetR(BD) R94L D95A H100 (protein)
chain: B1 chain with R94L, E95A, E97A, H100Q
modifications: H100 change unspecified; Modified tetracycline repressor
notes: revTetR(BD) R94L D95A H100
B10: TetRrev6-35: revTetR(BD) D95Y V99E (protein)
chain: B1 chain with E95Y, E97A, V99E
modifications: Modified tetracycline repressor
notes: revTetR(BD) D95Y V99E
B11: TetRrev6-37-1: revTetR(BD) G96R A97S V99L (protein)
chain: B1 chain with E95D, G96R, E97S, V99L
modifications: Modified tetracycline repressor
notes: revTetR(BD) G96R A97S V99L
B12: TetRrev6-38: revTetR(BD) Y93H G96W K98Q V99G (protein)
chain: B1 chain with Y93H, E95D, G96W, E97A, K98Q, V99G
modifications: Modified tetracycline repressor
notes: revTetR(BD) Y93H G96W K98Q V99G
B13: TetRrev6-50: revTetR(BD) V99G (protein)
chain: B1 chain with E95D, E97A, V99G
modifications: Modified tetracycline repressor
notes: revTetR(BD) V99G
B14: TetRrev6-51: revTetR(BD) A97T V99G (protein)
chain: B1 chain with E95D, E97T, V99G
modifications: Modified tetracycline repressor
notes: revTetR(BD) A97T V99G
B15: TetRrev6-53: revTetR(BD) A97P K98R V99D (protein)
chain: B1 chain with E95D, E97P, K98R, V99D
modifications: Modified tetracycline repressor
notes: revTetR(BD) A97P K98R V99D
B16: TetRrev6-54: revTetR(BD) Y93F D95N V99F (protein)
chain: B1 chain with Y93F, E95N, E97A, V99F
modifications: Modified tetracycline repressor
notes: revTetR(BD) Y93F D95N V99F
B17: TetRrev4/6-3: revTetR(BD) D95A V99G (protein)
chain: B1 chain with E95A, E97A, V99G
modifications: Modified tetracycline repressor
notes: revTetR(BD) D95A V99G
B18: TetRrev4/6-4: revTetR(BD) D95A V99G V57V A61G (protein)
chain: B1 chain with A61G, E95A, E97A, V99G
modifications: Modified tetracycline repressor
notes: revTetR(BD) D95A V99G V57V A61G
B19: TetRrev4/6-5: revTetR(BD) A54S V99R (protein)
chain: B1 chain with A54S, E95D, E97A, V99R
modifications: Modified tetracycline repressor
notes: revTetR(BD) A54S V99R
B20: TetRrev4/6-6: revTetR(BD) D53Y V57V A61P (protein)
chain: B1 chain with D53Y, A61P, E95D, E97A
modifications: Modified tetracycline repressor
notes: revTetR(BD) D53Y V57V A61P
B21: TetRrev4/6-7: revTetR(BD) L55L L60V A97V V99G (protein)
chain: B1 chain with L60V, E95D, E97V, V99G
modifications: Modified tetracycline repressor
notes: revTetR(BD) L55L L60V A97V V99G

These molecules were tested on tet operator sequence (assay: β-galactosidase activity of a tetracycline-regulated promoter in transformed E. coli with revTetR, in the presence and absence of anhydrotetracycline (atc)). Settings: RevTetR isolate cultured in the absence of anhydrotetracycline (ATC).
Type: cell-based, Escherichia coli
Summary of the method: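 TetR(BD) chimera mutants (TetR(B) residues 1–50, TetR(D) 51–208) expressed in E. coli regulating a tet operator-controlled lacZ. β-Galactosidase measured in Miller units at 28 °C and 37 °C with and without anhydrotetracycline; reported as percent of maximal expression without Tet repressor.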

Row | Molecule | β-Galactosidase Activity, Cultured Without ATC
1 | B1 | 101
2 | B2 | 42.8584
3 | B3 | 53.6535
4 | B4 | 108.105
5 | B5 | 23.0695
6 | B6 | 55.658
7 | B7 | 79.3731
8 | B8 | 108.964
9 | B9 | 85.725
10 | B10 | 74.8797
11 | B11 | 55.277
12 | B12 | 96.194
13 | B13 | 60.464
14 | B14 | 93.974
15 | B15 | 107.107
16 | B16 | 6.393
17 | B17 | 69.291
18 | B18 | 96.491
19 | B19 | 97.92
20 | B20 | 67.879
21 | B21 | 86.036

Same assay, conditions: RevTetR isolate cultured in the presence of anhydrotetracycline (ATC)

Row | Molecule | β-Galactosidase Activity, Cultured With ATC
22 | B1 | 49
23 | B2 | 4.136
24 | B3 | 6.9688
25 | B4 | 44.43
26 | B5 | 1.3657
27 | B6 | 35.26
28 | B7 | 3.789
29 | B8 | 2.984
30 | B9 | 40.254
31 | B10 | 7.0255
32 | B11 | 20.04
33 | B12 | 46.91
34 | B13 | 2.469
35 | B14 | 4.499
36 | B15 | 27.918
37 | B16 | 1.268
38 | B17 | 0.878
39 | B18 | 1.639
40 | B19 | 5.7
41 | B20 | 3.197
42 | B21 | 2.151
